Laboratory results as given in patent US20240360223A1 (DRAGONFLY THERAPEUTICS, published 2024).
Changes are numbered by the printed parent chain. Several values for one entry are separate records, joined by “and”; a condition that tells them apart may be missing. Identical values can stand only once.

How the values were obtained:
[1] = molecular target: T1, cynomolgus CD16 (cynomolgus, UniProt Q8SPW2 17-208, limits assumed); assay: SPR, kinetic fit; first replicate, kinetic fit
T1 construct: also called Cyno CD16; cynomolgus FcγRIII

[2] = molecular target: T2, cynomolgus NKG2D (recombinant mFc-tagged dimer) (cynomolgus, UniProt P61252 78-216); assay: SPR
T2 construct: also called cyno NKG2D
T2 sequence (looked up): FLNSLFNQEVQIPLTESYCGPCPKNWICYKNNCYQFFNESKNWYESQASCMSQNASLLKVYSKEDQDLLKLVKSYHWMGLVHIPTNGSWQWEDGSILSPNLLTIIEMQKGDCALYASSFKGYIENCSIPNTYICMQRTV
From the text: (§1) Two different fits were utilized to obtain the equilibrium affinity data: steady state affinity fit and kinetic fit.

[3] = molecular target: T3, cynomolgus FcRn (cynomolgus, UniProt Q8SPV9 24-297; Q8SPW0 21-119); assay: SPR, pH 6.0, steady state; pH 6.0; fourth replicate
T3 construct: also called Cyno FcRn

[4] = molecular target: T4, human CD32a R131 (human, UniProt P12318 36-218, limits assumed); assay: SPR, steady state, average
T4 construct: also called FcγRIIa R131
T4 sequence (looked up): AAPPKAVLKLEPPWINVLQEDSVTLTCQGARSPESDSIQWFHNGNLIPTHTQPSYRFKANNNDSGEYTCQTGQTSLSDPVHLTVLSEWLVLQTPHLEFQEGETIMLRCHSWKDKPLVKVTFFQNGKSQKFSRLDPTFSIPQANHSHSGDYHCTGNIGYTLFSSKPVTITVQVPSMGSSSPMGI

[5] = molecular target: T5, human NKG2D (recombinant mFc-tagged dimer) (human, UniProt P26718 78-216); assay: SPR, average
T5 construct: also called hNKG2D
T5 sequence (looked up): T2 sequence (looked up) with N38D, I128T
From the text: NKG2D is a native dimer, therefore recombinant mFc-tagged NKG2D dimer was used for this experiment. Two different fits were utilized to obtain the equilibrium affinity data: steady state affinity fit and kinetic fit.

[6] = molecular target: T6, human FcRn (human, UniProt P55899 24-297; P61769 21-119); assay: SPR, pH 6.0, steady state; pH 6.0; third replicate
[7] = molecular target: T7, human CD32b (human, UniProt P31994 46-217, limits assumed); assay: SPR, steady state, average
T7 construct: also called FcγRIIb
T7 sequence (looked up): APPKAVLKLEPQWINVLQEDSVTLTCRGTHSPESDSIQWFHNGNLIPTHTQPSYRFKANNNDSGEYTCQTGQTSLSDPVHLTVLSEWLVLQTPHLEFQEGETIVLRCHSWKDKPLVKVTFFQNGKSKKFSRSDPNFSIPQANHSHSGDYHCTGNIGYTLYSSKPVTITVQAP

[8] = molecular target: T2, cynomolgus NKG2D (recombinant …); assay: SPR, steady state fit
From the text: as §1

[9] = molecular target: T8, human CD64 (human, UniProt P12314 16-288, limits assumed); assay: SPR, average
T8 construct: also called FcγRI
Description: Binding analyses as described in this Example were performed using SPR, as described in Example 4.

[10] = molecular target: T1, cynomolgus CD16; assay: SPR
[11] = molecular target: T6, human FcRn; assay: SPR, pH 6.0, steady state; pH 6.0; fourth replicate
[12] = molecular target: T5, human NKG2D (recombinant mFc-tagged …); assay: SPR, steady state, after 4 weeks at 40 °C
[13] = molecular target: T9, human BAFF-R expressed on cells (human, UniProt Q96RJ3 1-184); assay: flow cytometry, SUDHL-6 cells
T9 construct: Cell surface BAFF-R, endogenous on B cell lines and primary B cells or overexpressed on isogenic CHO cells; also called hBAFF-R; hBAFF-R-CHO

[14] = molecular target: T9, human BAFF-R expressed on cells; assay: cell-based or functional assay
[15] = molecular target: T10, cynomolgus monkey BAFF-R expressed on cells (cynomolgus monkey); assay: flow cytometry, CHO-cBAFF-R cells
T10 construct: whole, on cells; also called cBAFF-R; cynoBAFF-R

[16] = molecular target: T2, cynomolgus NKG2D (recombinant …); assay: SPR, kinetics fit
From the text: as §1

[17] = molecular target: T3, cynomolgus FcRn; assay: SPR, pH 6.0, steady state; pH 6.0; third replicate
[18] = molecular target: T3, cynomolgus FcRn; assay: SPR, pH 6.0, steady state; pH 6.0; first replicate
[19] = molecular target: T9, human BAFF-R expressed on cells; assay: flow cytometry, Rs4;11 cells
[20] = molecular target: T11, human CD16a V158 (human, UniProt P08637 17-208); assay: SPR, average
T11 construct: also called hCD16aV; hCD16a V158

[21] = molecular target: T2, cynomolgus NKG2D (recombinant …); assay: SPR, average
[22] = molecular target: T11, human CD16a V158; assay: SPR, after 4 weeks at 40 °C
[23] = molecular target: T5, human NKG2D (recombinant mFc-tagged …); assay: SPR, after 4 weeks at 40 °C

T1 sequence (Q8SPW2 17-208 limits assumed): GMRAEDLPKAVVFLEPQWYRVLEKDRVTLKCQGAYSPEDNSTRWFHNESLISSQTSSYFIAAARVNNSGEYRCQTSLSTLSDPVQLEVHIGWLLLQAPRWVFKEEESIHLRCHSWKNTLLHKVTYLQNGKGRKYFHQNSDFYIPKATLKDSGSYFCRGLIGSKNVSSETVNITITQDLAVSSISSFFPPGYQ
T8 sequence (P12314 16-288 limits assumed): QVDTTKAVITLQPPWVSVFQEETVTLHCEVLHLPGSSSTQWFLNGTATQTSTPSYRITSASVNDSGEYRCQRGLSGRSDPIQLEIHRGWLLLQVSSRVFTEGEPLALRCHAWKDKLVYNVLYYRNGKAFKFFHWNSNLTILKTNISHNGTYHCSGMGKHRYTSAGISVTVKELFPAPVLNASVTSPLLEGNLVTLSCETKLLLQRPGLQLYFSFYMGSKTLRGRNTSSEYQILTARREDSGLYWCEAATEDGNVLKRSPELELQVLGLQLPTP
T3 sequence (Q8SPV9 24-297 limits assumed, chain 1 of 2): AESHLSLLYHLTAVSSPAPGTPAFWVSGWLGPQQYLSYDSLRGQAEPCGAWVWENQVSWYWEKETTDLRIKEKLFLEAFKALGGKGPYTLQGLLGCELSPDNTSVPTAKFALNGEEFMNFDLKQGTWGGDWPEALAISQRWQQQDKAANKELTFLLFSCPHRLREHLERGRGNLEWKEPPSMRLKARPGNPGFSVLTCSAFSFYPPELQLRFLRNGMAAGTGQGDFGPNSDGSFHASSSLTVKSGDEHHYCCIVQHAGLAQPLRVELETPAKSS
T3 sequence (Q8SPW0 21-119 limits assumed, chain 2 of 2): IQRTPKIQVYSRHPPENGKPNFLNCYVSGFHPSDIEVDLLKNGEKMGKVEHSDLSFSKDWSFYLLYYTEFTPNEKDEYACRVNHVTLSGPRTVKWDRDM
T11 sequence (P08637 17-208 F176V limits assumed): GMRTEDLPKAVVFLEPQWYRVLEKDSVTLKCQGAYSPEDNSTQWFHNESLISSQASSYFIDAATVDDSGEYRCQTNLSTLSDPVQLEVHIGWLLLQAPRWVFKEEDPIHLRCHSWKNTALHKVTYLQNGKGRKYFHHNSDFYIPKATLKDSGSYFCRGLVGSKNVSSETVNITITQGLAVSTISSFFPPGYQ
T6 sequence (P55899 24-297 limits assumed, chain 1 of 2): as the sequence (Q8SPV9 24-297 limits assumed, chain 1 of 2) above, with D39N, Q44E, S99G, G189S, N190S, M217L, T269S counted along it
T6 sequence (P61769 21-119 limits assumed, chain 2 of 2): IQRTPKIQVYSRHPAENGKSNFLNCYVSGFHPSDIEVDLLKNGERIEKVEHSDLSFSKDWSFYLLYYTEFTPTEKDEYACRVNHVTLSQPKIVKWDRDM

B1: AB1424/AB1612 F3′ TriNKET (bispecific antibody, human IgG1, kappa)
chain: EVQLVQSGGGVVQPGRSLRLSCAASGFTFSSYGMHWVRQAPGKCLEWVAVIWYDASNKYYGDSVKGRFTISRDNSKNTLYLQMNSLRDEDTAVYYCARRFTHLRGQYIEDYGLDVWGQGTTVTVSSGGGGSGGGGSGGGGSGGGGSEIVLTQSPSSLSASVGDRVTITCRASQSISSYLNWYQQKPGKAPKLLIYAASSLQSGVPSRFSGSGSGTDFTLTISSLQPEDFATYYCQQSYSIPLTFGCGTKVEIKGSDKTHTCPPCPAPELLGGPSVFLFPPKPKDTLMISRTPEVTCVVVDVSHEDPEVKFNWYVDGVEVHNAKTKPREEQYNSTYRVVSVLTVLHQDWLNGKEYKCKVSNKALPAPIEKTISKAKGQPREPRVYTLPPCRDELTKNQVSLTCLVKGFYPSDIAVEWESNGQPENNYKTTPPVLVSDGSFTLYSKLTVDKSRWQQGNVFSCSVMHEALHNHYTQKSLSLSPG
heavy: EVQLVESGGGLVKPGGSLRLSCAASGFTFSSYSMNWVRQAPGKGLEWVSSISSSSSYIYYADSVKGRFTISRDNAKNSLYLQMNSLRAEDTAVYYCARGAPIGAAAGWFDPWGQGTLVTVSSASTKGPSVFPLAPSSKSTSGGTAALGCLVKDYFPEPVTVSWNSGALTSGVHTFPAVLQSSGLYSLSSVVTVPSSSLGTQTYICNVNHKPSNTKVDKKVEPKSCDKTHTCPPCPAPELLGGPSVFLFPPKPKDTLMISRTPEVTCVVVDVSHEDPEVKFNWYVDGVEVHNAKTKPREEQYNSTYRVVSVLTVLHQDWLNGKEYKCKVSNKALPAPIEKTISKAKGQPREPQVCTLPPSRDELTENQVSLTCLVKGFYPSDIAVEWESNGQPENNYKTTPPVLDSDGSFFLYSWLTVDKSRWQQGNVFSCSVMHEALHNHYTQKSLSLSPG
light: DIQMTQSPSSVSASVGDRVTITCRASQGISSWLAWYQQKPGKAPKLLIYAASSLQSGVPSRFSGSGSGTDFTLTISSLQPEDFATYYCQQGVSFPRTFGGGTKVEIKRTVAAPSVFIFPPSDEQLKSGTASVVCLLNNFYPREAKVQWKVDNALQSGNSQESVTEQDSKDSTYSLSSTLTLSKADYEKHKVYACEVTHQGLSSPVTKSFNRGEC
notes: Chain S: anti-BAFF-R scFv-CH2-CH3; chain H: anti-NKG2D VH-CH1-CH2-CH3; chain L: anti-NKG2D VL-CL; also called AB1612-002
In the case of B1, the Kd [1] is reported as 261 nM, the koff [2] is reported as 0.11 s⁻¹ and 0.12 s⁻¹ and the kon [2] is reported as 180000 M⁻¹ s⁻¹ and 190000 M⁻¹ s⁻¹. It also gave a Kd [3] of 1000 nM, a Kd [4] of 1400 nM and a koff [5] of 0.11 s⁻¹. For the same binder, the kon [5] was 240000 M⁻¹ s⁻¹, the Kd [6] was 1100 nM and the Kd [7] was 5900 nM. For the same binder, the Kd [8] was 618 nM and 630 nM and 589 nM and 600 nM, the Kd [9] was 3.2 nM and the koff [9] was 0.00023 s⁻¹. The kon [9] was 73000 M⁻¹ s⁻¹, the koff [10] was 0.02 s⁻¹ and 0.021 s⁻¹ and the kon [10] was 78000 M⁻¹ s⁻¹ and 72000 M⁻¹ s⁻¹. The Kd [11] was 1100 nM, the Kd [12] was 522 nM and the EC50 [13] was 0.41 nM. The “Max FOB” value [13] was 19 fold over background, the “KHYG-1-CD16a cytotoxicity on BJAB cells, EC50” value [14] was 0.03 nM and the EC50 [15] was 0.96 nM. For the same binder, the “Max FOB” value [15] was 67 fold over background, the Kd [16] was 609 nM and 617 nM and 572 nM and 587 nM and the Kd [17] was 1000 nM. The Kd [18] was 1000 nM, the EC50 [19] was 0.09 nM and the “Max FOB” value [19] was 4 fold over background. For the same binder, the koff [20] was 0.014 s⁻¹, the kon [20] was 110000 M⁻¹ s⁻¹ and the koff [21] was 0.11 s⁻¹. For the same binder, the kon [21] was 200000 M⁻¹ s⁻¹, the Kd [22] was 145 nM and the koff [22] was 0.016 s⁻¹. It also gave a kon [22] of 120000 M⁻¹ s⁻¹, a koff [23] of 0.1 s⁻¹ and a kon [23] of 210000 M⁻¹ s⁻¹.
